Measured values published in patent US20180118802A1 (published 2018).
Substitutions are numbered along the chain they refer to. Where two headings read alike, the source gives them in different places.

T1: LRP2 CR89 V1047D R1088D (human, UniProt P98164 1022-1105)
T1 construct: also called YDWD
T1 sequence: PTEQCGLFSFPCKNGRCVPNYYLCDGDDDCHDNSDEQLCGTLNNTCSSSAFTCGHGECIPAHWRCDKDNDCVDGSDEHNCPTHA

T2: LRP2 CR89 Y1042W R1088D (human, UniProt P98164 1022-1105)
T2 construct: also called WVWD
T2 sequence: T1 sequence with Y22W, D27V

T3: LRP2 CR89 V1047D (human, UniProt P98164 1022-1105)
T3 construct: also called YDWR
T3 sequence: T1 sequence with D68R

T4: LRP2 CR89 Y1042W (human, UniProt P98164 1022-1105)
T4 construct: also called WVWR
T4 sequence: T1 sequence with Y22W, D27V, D68R

T5: LRP2 CR89 Y1042W V1047D R1088D (human, UniProt P98164 1022-1105)
T5 construct: also called WDWD
T5 sequence: T1 sequence with Y22W

T6: LRP2 CR89 Y1042W V1047D (human, UniProt P98164 1022-1105)
T6 construct: also called WDWR
T6 sequence: T1 sequence with Y22W, D68R

B1: RAP d3 (ligand, not shown: small tags and cut ends)
chain: LDRLRRVSHQGYSTEAEFEEPRVIDLWDLAQSANLTDKELEAFREELKHFEAKIEKHNHYQKQLEIAHEKLRHAESVGDGERVSRSREKHALLEGRTKELGYTVKKHLQDLSGRISRAR
notes: also called wild-type RAP d3
B2: MAT CR12 (other)
chain: PCPGQFTCRTGRCIRKELRCDGWADCTDHSDELNCSCDAGHQFTCKNKFCKPLFWVCDSVNDCGDNSDEQGCS
notes: also called ST14 CR12; not shown: N-terminal hexahistidine/S-peptide tag of pET30(+)a
B3: MegaRAP1 d3 (ligand, not shown: small tags and cut ends)
chain: B1 chain with S13T, E17K, H49Y, E51K, K56A, K70E
notes: also called RAPv2A d3; RAP v2

Columns and labels:
[1] = target: T1, LRP2 CR89 V1047D R1088D; experiment: solid-phase binding assay, CR protein coated, anti-RAP detection
Experimental: (§1) Solid phase binding assays—Purified, refolded CR protein (1 μg) was bound to Nunc Maxisorp™ 96-well plates in TBS pH 8 supplemented with 5 mM CaCl₂ (TBSC) overnight at 4° C. Wells were washed with TBSC and then blocked with TBSC containing 2% bovine serum albumin (BSA). RAP ligands were then incubated with the immobilized receptor at a range of concentrations for 2 hours in the above blocking buffer supplemented with 0.05% Tween-20 at room temperature. Control wells contained no added ligand. As an additional control, to determine whether the absence of calcium affected binding, 10 mM EGTA was included in the incubation medium for some samples. Wells were washed with TBSTC and bound ligands detected with polyclonal anti-RAP (BP41/42, 1:1,000, BioMarin). Excess primary antibody was removed and wells washed before incubation with the secondary antibody, HRP-conjugated goat anti rabbit IgG (Bio-Rad). After washing, TMB substrate solutions (Bio-Rad) were added to detect HRP. Color development was stopped with 1N HCl. Absorption at 450 nm was measured with a microplate spectrophotometer (Molecular Devices). Data were plotted and Kd values derived by non-linear regression with the assumption of single-site binding (GraphPad Prism).
(§2) One premise of this work was that amino acids at A, C, A′ and C′ within the calcium-binding loops of a CR pair were key determinants of binding affinity for RAP and would be similarly important for binding of RAP variants. To test this idea, mutant LRP2 CR89 were prepared in which the native, non-canonical residues at these positions were sequentially substituted with the non-native, canonical residues. As defined above, the A, C, A′, C′ string for LRP2 CR89 is YVWR. Mutants included LRP2 CR89 Y1042W (WVWR), LRP2 CR89 V1047D (YDWR), LRP2 CR89 R1088D (YVWD), LRP2 CR89 V1047D R1088D (YDWD), LRP2 CR89 Y1042W V1047D R1088D (WDWD), LRP2 CR89 Y1042W V1047D (WDWR), LRP2 CR89 Y1042W R1088D (WVWD). Binding to both RAP d3 and MegaRAP1 d3 were measured for each LRP2 CR89 mutant by solid-phase assay.

[2] = target: T2, LRP2 CR89 Y1042W R1088D; experiment: as above
Experimental: as §1, §2

[3] = target: T3, LRP2 CR89 V1047D; experiment: as above
Experimental: as §1, §2

[4] = target: T7, LRP2 CR89 (human, UniProt P98164 1025-1102); experiment: as above
T7 construct: domain: CR89; also called YVWR; not shown: N-terminal hexahistidine and S-peptide of pET30(+)a
T7 sequence (P98164 1025-1102): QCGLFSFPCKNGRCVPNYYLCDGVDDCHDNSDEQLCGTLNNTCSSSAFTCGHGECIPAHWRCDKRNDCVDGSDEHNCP
Experimental: as §1, §2

[5] = target: T8, LRP2 CR89 R1088D (human, UniProt P98164 1022-1105); experiment: as above
T8 construct: also called YVWD
Experimental: as §1, §2

[6] = target: T4, LRP2 CR89 Y1042W; experiment: as above
Experimental: as §1, §2

[7] = target: T5, LRP2 CR89 Y1042W V1047D R1088D; experiment: as above
Experimental: as §1, §2

[8] = target: T9, LRP1 CR3-5 (human, UniProt Q07954 852-973); experiment: as above
T9 construct: range 852-973; not shown: N-terminal hexahistidine and S-peptide of pET30(+)a
T9 sequence (Q07954 852-973, form in doubt): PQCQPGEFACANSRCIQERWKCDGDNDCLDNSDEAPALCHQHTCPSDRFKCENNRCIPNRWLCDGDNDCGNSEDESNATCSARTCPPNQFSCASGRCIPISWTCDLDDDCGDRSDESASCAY
Experimental: (§3) Wells were washed with TBSTC and bound ligands detected with polyclonal anti-RAP (BP41/42, 1:1,000, BioMarin). Excess primary antibody was removed and wells washed before incubation with the secondary antibody, HRP-conjugated goat anti rabbit IgG (Bio-Rad). After washing, TMB substrate solutions (Bio-Rad) were added to detect HRP. Color development was stopped with 1N HCl. Absorption at 450 nm was measured with a microplate spectrophotometer (Molecular Devices). Data were plotted and Kd values derived by non-linear regression with the assumption of single-site binding (GraphPad Prism).
(§4) Next, the binding of RAP d3 and MegaRAP1 d3 proteins to LRP1 CR3-5 and LRP2 CR89 was assessed. […] In all cases, 10 mM EGTA prevented binding of both RAP d3 and MegaRAP1 d3 to CR proteins. Since calcium was the only divalent metal ion present in the binding buffer, this observation is consistent with both RAP d3 and MegaRAP1 d3 binding to calcium-loaded CR pairs. […] Therefore, wild-type RAP d3 and MegaRAP1 d3 have inverted binding preferences for these two receptor fragments.

[9] = target: T7, LRP2 CR89; experiment: as above; remark: listed apart in the source
Experimental: as §3, §4

[10] = target: T9, LRP1 CR3-5; experiment: as above; remark: listed apart in the source
Experimental: as §1

[11] = target: T9, LRP1 CR3-5; experiment: as above; remark: listed apart in the source
Source text: (§5) Alternatively, the affinity differences between MegaRAP I d3 and MegaRAP1 d3 E270K may have been insufficient to alloW the latter to predominate upon iterative panning. A double revertant, T213S, E270K, had binding behavior that was not distinguishable from MegaRAP1 d3 in our assays. […] The binding behavior of the K251E, E270K double revertant implies a strong dependence of the affinity of MegaRAP1 d3 for LRP2 CR89 on the E251K mutation. […] Therefore, the K256A mutation in MegaRAP1 d3 is a crucial determinant of the ability of this variant to discriminate between the two receptor fragments, exerting its effect by negatively impacting affinity for LRP1 CR3-5 while at the same time improving affinity for LRP2 CR89.

[12] = target: T10, VLDLR CR6-8 (human, UniProt P98155 235-358); experiment: as above
T10 construct: range 235-358; not shown: N-terminal hexahistidine and S-peptide of pET30(+)a
Source text: as §5

[13] = target: B1; experiment: solid-phase binding assay, ligand at 80 nM, CR protein coated (FIG. 7)
Experimental: as §1
The apparent dissociation constant for binding of VRAP1 d3 to VLDLR CR78 was determined to be 44±9 nM. […]

[14] = target: T6, LRP2 CR89 Y1042W V1047D; experiment: solid-phase binding assay, CR protein coated, anti-RAP detection
Experimental: as §1, §2

% max bind [1] | % max bind [2] | % max bind [3] | % max bind [4] | % max bind [5] | % max bind [6] | % max bind [7] | % max [8] | Kd [8] | % max [9] | Kd [10] | Kd [11] | Kd [12] | binding result [13] | binding result [1] | binding result [2] | binding result [3] | binding result [14] | binding result [6] | binding result [7] | Binder
6% | 16% | 6% | 7% | 7% | 9% | 15% | 76% | 16 nM | 5% | 16 nM | 11 nM | > 300 nM | – | – | – | – | – | – | – | B1
– | – | – | – | – | – | – | – | – | – | – | – | – | no binding (tested: 80 nM) | – | – | – | – | – | – | B2
– | – | – | – | – | 5% | – | – | – | – | – | – | – | – | no binding | no binding | no binding | no binding | no binding | no binding | B3
